Test results published in patent publication US20210371525A1.

Biological target: CD277 (BTN3A1) on Jeko-1 cells (UniProt O00481)
Assay: cell-based or functional assay

CD277 (BTN3A1) on Jeko-1 cells, sequence (O00481 30-513 limits assumed): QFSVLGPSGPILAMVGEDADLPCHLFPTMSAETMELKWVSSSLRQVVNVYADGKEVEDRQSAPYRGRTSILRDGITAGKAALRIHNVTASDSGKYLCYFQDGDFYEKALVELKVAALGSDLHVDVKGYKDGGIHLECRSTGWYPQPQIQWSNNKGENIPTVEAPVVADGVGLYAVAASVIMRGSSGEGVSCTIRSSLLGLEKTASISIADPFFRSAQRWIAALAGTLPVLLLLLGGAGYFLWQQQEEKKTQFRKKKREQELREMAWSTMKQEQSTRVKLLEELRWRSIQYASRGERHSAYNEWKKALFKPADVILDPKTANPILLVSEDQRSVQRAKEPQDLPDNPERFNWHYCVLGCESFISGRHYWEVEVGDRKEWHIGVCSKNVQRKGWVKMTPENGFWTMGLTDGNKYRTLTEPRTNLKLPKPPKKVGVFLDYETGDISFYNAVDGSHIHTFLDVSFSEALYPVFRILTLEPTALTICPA

- decrease of 1D7-5C8-induced lysis of Jeko-1 cells with anti-CD277 mAb 103.2 (10 µg/mL): 11.4%
- specific lysis of Jeko-1 cells at 10 pM 1D7-5C8 with anti-CD277 mAb 103.2 (10 µg/mL): 18.2%
B1: human Vγ9Vδ2-TCR on cultured Vγ9Vδ2-T cells (TCR, V domains shown)
V domain 1: AGHLEQPQISSTKTLSKTARLECVVSGITISATSVYWYRERPGEVIQFLVSISYDGTVRKESGIPSGKFEVDRIPETSTSTLTIHNVEKQDIATYYCALWEAQQELGKKIKVFGPGTKLIITD
V domain 2: AIELVPEHQTVPVSIGVPATLRCSMKGEAIGNYYINWYRKTQGNTMTFIYREKDIYGPGFKDNFQGDIDIAKNLAVLKILAPSERDEGSYYCACDTLGMGGEYTDKLIFGKGTRVTVEP
